Experimental data from paper PMC2765437.

What was measured:
[1] = system: M-pol (MuLV RT polymerase domain) (MuLV); test: EMSA; conditions: 50 mM Tris-HCl pH 7.8, 60 mM KCl, 1 mM DTT, 0.01% NP40, 10% glycerol; 5 nM labeled template-primer, 10 uL; 6% native gel in Tris-borate pH 8.2 run at 4 C …
[2] = system: chimeric HIV-1 RT (HIV-1 RT polymerase domain + MuLV RT RNase H domain) (HIV-1 / MuLV chimera); test: EMSA; conditions: 50 mM Tris-HCl pH 7.8, 60 mM KCl, 1 mM DTT, 0.01% NP40, 10% glycerol; 5 nM labeled template-primer, 10 uL; 6% native gel in Tris-borate pH 8.2 run at 4 C …
[3] = system: chimeric MuLV RT (MHCI RT; MuLV RT polymerase domain + HIV-1 RT RNase H domain) (MuLV / HIV-1 chimera); test: EMSA; conditions: 50 mM Tris-HCl pH 7.8, 60 mM KCl, 1 mM DTT, 0.01% NP40, 10% glycerol; 5 nM labeled template-primer, 10 uL; 6% native gel in Tris-borate pH 8.2 run at 4 C …
[4] = system: wild-type HIV-1 RT (p66/66) (HIV-1); test: EMSA; conditions: 50 mM Tris-HCl pH 7.8, 60 mM KCl, 1 mM DTT, 0.01% NP40, 10% glycerol; 5 nM labeled template-primer, 10 uL; 6% native gel in Tris-borate pH 8.2 run at 4 C …
wild-type MuLV RT (MuLV) = test: EMSA; conditions: 50 mM Tris-HCl pH 7.8, 60 mM KCl, 1 mM DTT, 0.01% NP40, 10% glycerol; 5 nM labeled template-primer, 10 uL; 6% native gel in Tris-borate pH 8.2 run at 4 C …
[5] = target: wild-type p66/66 HIV-1 RT (human immunodeficiency virus type 1 reverse transcriptase) (human immunodeficiency virus type 1); test: glycerol gradient ultracentrifugation; 50 micrograms of each enzyme alone on 5 ml of 10%-30% linear glycerol gradient in 50 mM Tris HCl pH 8.0, 400 mM NaCl; 48,000 rpm, 20-24 h, SW 50.1 rotor; fractions from the bottom analysed by SDS-PAGE and Coomassie blue

Substance	Kd [1] [nM]	Kd [2] [nM]	Kd [3] [nM]	Kd [4] [nM]	Kd (wild-type MuLV RT (MuLV)) [nM]	stoichiometry N [5]
49-mer DNA template / 17-mer PBS DNA primer	1.2	1.5	3.3	3.2	2.7	–
wild-type p66/66 HIV-1 RT (human immunodeficiency virus type 1 reverse transcriptase) (enzyme)	–	–	–	–	–	2
